Reference: publication PMC5517563 (Scientific Reports, 2017)

How the values were obtained:
[1] = target: T1, MtACK (Methanosarcina thermophila acetate kinase) (Methanosarcina thermophila, UniProt P38502, G331Q/I332M); assay: reverse modified hydroxamate assay ([…] nm); format: biochemical; details: read-out: ATP IC50 (mM) / Acetate-forming direction
T1 construct: gene ackA; recombinant, produced in E. coli Rosetta2 (DE3) pLysS
T1 sequence (P38502 1-408 G331Q/I332M): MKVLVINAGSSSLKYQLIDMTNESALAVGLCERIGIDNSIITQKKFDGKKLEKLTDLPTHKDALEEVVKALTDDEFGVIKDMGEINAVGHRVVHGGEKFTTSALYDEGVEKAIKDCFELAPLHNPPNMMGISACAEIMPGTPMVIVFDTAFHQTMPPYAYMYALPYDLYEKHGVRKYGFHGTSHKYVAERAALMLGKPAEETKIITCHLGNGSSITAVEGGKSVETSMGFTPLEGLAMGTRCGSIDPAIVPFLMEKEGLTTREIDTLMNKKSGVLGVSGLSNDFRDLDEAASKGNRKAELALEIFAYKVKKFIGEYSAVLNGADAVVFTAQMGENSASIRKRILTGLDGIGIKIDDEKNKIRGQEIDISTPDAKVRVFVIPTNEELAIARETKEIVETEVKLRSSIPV

[2] = target: T2, MtACK (Methanosarcina thermophila acetate kinase) (Methanosarcina thermophila, UniProt P38502); assay: reverse modified hydroxamate assay ([…] nm); format: biochemical; details: read-out: ATP IC50 (mM) / Acetate-forming direction
T2 construct: gene ackA; recombinant, produced in E. coli Rosetta2 (DE3) pLysS
T2 sequence (P38502 1-408): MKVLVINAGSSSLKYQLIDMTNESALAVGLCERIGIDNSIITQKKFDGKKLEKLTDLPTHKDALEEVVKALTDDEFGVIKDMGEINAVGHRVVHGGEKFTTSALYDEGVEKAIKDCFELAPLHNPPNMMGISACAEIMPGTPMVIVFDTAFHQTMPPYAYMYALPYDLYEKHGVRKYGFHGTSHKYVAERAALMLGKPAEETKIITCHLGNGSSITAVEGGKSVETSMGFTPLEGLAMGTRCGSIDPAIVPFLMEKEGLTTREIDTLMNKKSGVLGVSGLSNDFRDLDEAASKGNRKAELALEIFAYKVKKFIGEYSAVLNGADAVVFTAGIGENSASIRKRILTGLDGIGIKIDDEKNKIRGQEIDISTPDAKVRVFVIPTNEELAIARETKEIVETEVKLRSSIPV

[3] = target: T2, MtACK (Methanosarcina thermophila acetate kinase); assay: hydroxamate assay ([…] nm); format: biochemical; details: acetyl phosphate-forming direction; MgATP, co-substrate acetate; 100 mM Tris pH 7.5, 600 mM hydroxylamine, 37 °C; apparent
[4] = target: T3, EhACK (Entamoeba histolytica acetate kinase) (Entamoeba histolytica, UniProt C4M1C3); assay: reverse modified hydroxamate assay ([…] nm); format: biochemical; details: read-out: ATP IC50 (mM) / Acetate-forming direction
T3 construct: gene EHI_170010; recombinant, produced in E. coli YBS121 delta-ack delta-pta (pREP4)
T3 sequence (C4M1C3 1-392): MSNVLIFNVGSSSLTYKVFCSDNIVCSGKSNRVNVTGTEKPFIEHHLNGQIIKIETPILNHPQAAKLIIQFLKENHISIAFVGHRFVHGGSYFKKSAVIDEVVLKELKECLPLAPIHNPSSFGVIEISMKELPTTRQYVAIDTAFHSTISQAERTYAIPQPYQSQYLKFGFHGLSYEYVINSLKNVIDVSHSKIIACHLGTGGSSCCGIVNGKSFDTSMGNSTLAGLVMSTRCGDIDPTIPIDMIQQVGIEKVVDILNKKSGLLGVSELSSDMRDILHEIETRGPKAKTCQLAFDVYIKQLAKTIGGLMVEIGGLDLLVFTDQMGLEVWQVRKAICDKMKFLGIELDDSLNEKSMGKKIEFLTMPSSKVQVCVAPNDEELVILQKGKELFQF

[5] = target: T1, MtACK (Methanosarcina thermophila acetate kinase); assay: hydroxamate assay ([…] nm); format: biochemical; details: acetyl phosphate-forming direction; MgATP, co-substrate acetate; 100 mM Tris pH 7.5, 600 mM hydroxylamine, 37 °C; apparent
[6] = target: T4, EhACK (Entamoeba histolytica acetate kinase) (Entamoeba histolytica, UniProt C4M1C3, D272A/M324I/Q323G/R274A); assay: biochemical
T4 construct: gene EHI_170010

[7] = target: T5, EhACK (Entamoeba histolytica acetate kinase) (Entamoeba histolytica, UniProt C4M1C3, M324A/Q323A); assay: biochemical
T5 construct: gene EHI_170010

[8] = target: T6, EhACK (Entamoeba histolytica acetate kinase) (Entamoeba histolytica, UniProt C4M1C3, M324I/Q323G); assay: biochemical
T6 construct: gene EHI_170010

purified protein [9] = substrate: CC(=O)OP(=O)(O)O; assay: purified protein; details: acetate-forming direction, apparent
purified protein [10] = substrate: Nc1ncnc2c1ncn2[C@@H]1O[C@H](COP(=O)(O)OP(=O)(O)O)[C@@H](O)[C@H]1O; assay: purified protein; details: acetate-forming direction, MgADP, co-substrate acetyl phosphate, 100 mM Tris pH 7.5, 37 °C, apparent
purified protein [11] = substrate: CC(=O)O; assay: purified protein; details: acetyl phosphate-forming direction, co-substrate MgATP, 100 mM Tris pH 7.5, 600 mM hydroxylamine, 37 °C, apparent, pH 7.5
purified protein [12] = substrate: O=P(O)(O)OP(=O)(O)O; assay: purified protein; details: acetyl phosphate-forming direction, co-substrate acetate, 5 mM MgCl2, morpholinoethanesulfonic acid pH 5.5, 600 mM hydroxylamine, 45 °C, apparent
purified protein [13] = substrate: O=P(O)(O)O; assay: purified protein; details: acetate-forming direction, co-substrate acetyl phosphate, 10 mM MgCl2, 100 mM Tris-HCl pH 7.0, 37 °C, apparent, pH 7.0
[14] = co-substrate MgADP, 100 mM Tris pH 7.5, 37 °C
[15] = co-substrate Pi, 10 mM MgCl2, 100 mM Tris-HCl pH 7.0, 37 °C

Molecule: O=P(O)(O)OP(=O)(O)O [PPi]
- IC50 [1]: 4 ± 0.28 mM
- IC50 [2]: 3.3 ± 0.06 mM

Molecule: Nc1ncnc2c1ncn2[C@@H]1O[C@H](COP(=O)(O)OP(=O)(O)OP(=O)(O)O)[C@@H](O)[C@H]1O [ATP]
- Km [3]: 1.7 ± 0.03 mM
- IC50 [4]: 6.1 ± 0.05 mM
- Km [5]: 9.4 ± 0.27 mM
- IC50 [6]: 2.4 ± 0.19 mM
- IC50 [7]: 4.8 ± 0.09 mM
- IC50 [8]: 4.2 ± 0.3 mM

B1: MtACK (Methanosarcina thermophila acetate kinase) (Methanosarcina thermophila) (protein)
chain: MKVLVINAGSSSLKYQLIDMTNESALAVGLCERIGIDNSIITQKKFDGKKLEKLTDLPTHKDALEEVVKALTDDEFGVIKDMGEINAVGHRVVHGGEKFTTSALYDEGVEKAIKDCFELAPLHNPPNMMGISACAEIMPGTPMVIVFDTAFHQTMPPYAYMYALPYDLYEKHGVRKYGFHGTSHKYVAERAALMLGKPAEETKIITCHLGNGSSITAVEGGKSVETSMGFTPLEGLAMGTRCGSIDPAIVPFLMEKEGLTTREIDTLMNKKSGVLGVSGLSNDFRDLDEAASKGNRKAELALEIFAYKVKKFIGEYSAVLNGADAVVFTAGIGENSASIRKRILTGLDGIGIKIDDEKNKIRGQEIDISTPDAKVRVFVIPTNEELAIARETKEIVETEVKLRSSIPV
- Km (purified protein [9]; [14]): 1.2 ± 0.09 mM
- kcat (purified protein [9]; [14]): 1550 ± 54 s⁻¹
- kcat/Km (purified protein [9]; [14]): 1.29e+06 ± 56000 M⁻¹ s⁻¹
- Km (purified protein [10]): 1.8 ± 0.13 mM
- kcat (purified protein [10]): 1915 ± 15 s⁻¹
- kcat/Km (purified protein [10]): 1.07e+06 ± 69000 M⁻¹ s⁻¹
- Km (purified protein [11]): 20 ± 0.3 mM
- kcat (purified protein [11]): 789 s⁻¹
- kcat/Km (purified protein [11]): 39000 M⁻¹ s⁻¹

B2: MtACK (Methanosarcina thermophila acetate kinase) (Methanosarcina thermophila; G331Q/I332M) (protein)
chain: MKVLVINAGSSSLKYQLIDMTNESALAVGLCERIGIDNSIITQKKFDGKKLEKLTDLPTHKDALEEVVKALTDDEFGVIKDMGEINAVGHRVVHGGEKFTTSALYDEGVEKAIKDCFELAPLHNPPNMMGISACAEIMPGTPMVIVFDTAFHQTMPPYAYMYALPYDLYEKHGVRKYGFHGTSHKYVAERAALMLGKPAEETKIITCHLGNGSSITAVEGGKSVETSMGFTPLEGLAMGTRCGSIDPAIVPFLMEKEGLTTREIDTLMNKKSGVLGVSGLSNDFRDLDEAASKGNRKAELALEIFAYKVKKFIGEYSAVLNGADAVVFTAQMGENSASIRKRILTGLDGIGIKIDDEKNKIRGQEIDISTPDAKVRVFVIPTNEELAIARETKEIVETEVKLRSSIPV
- Km (purified protein [10]): 5.7 ± 0.56 mM
- kcat (purified protein [10]): 12 ± 0.5 s⁻¹
- kcat/Km (purified protein [10]): 2000 ± 140 M⁻¹ s⁻¹

B3: EhACK (Entamoeba histolytica acetate kinase) (Entamoeba histolytica HM-1:IMSS) (protein)
chain: MSNVLIFNVGSSSLTYKVFCSDNIVCSGKSNRVNVTGTEKPFIEHHLNGQIIKIETPILNHPQAAKLIIQFLKENHISIAFVGHRFVHGGSYFKKSAVIDEVVLKELKECLPLAPIHNPSSFGVIEISMKELPTTRQYVAIDTAFHSTISQAERTYAIPQPYQSQYLKFGFHGLSYEYVINSLKNVIDVSHSKIIACHLGTGGSSCCGIVNGKSFDTSMGNSTLAGLVMSTRCGDIDPTIPIDMIQQVGIEKVVDILNKKSGLLGVSELSSDMRDILHEIETRGPKAKTCQLAFDVYIKQLAKTIGGLMVEIGGLDLLVFTDQMGLEVWQVRKAICDKMKFLGIELDDSLNEKSMGKKIEFLTMPSSKVQVCVAPNDEELVILQKGKELFQF
- Km (purified protein [9]; [15]): 0.57 ± 0.03 mM
- kcat (purified protein [9]; [15]): 266 ± 12 s⁻¹
- kcat/Km (purified protein [9]; [15]): 467000 ± 44000 M⁻¹ s⁻¹
- Km (purified protein [12]): 2.1 ± 0.33 mM
- kcat (purified protein [12]): 0.9 ± 0.03 s⁻¹
- kcat/Km (purified protein [12]): 440 ± 60 M⁻¹ s⁻¹
- Km (purified protein [13]): 14 ± 1.2 mM
- kcat (purified protein [13]): 196 s⁻¹
- kcat/Km (purified protein [13]): 14000 M⁻¹ s⁻¹
